The values below come from patent US20250026820A1 (WUHAN YZY BIOPHARMA, published 2025).

Numbering of substitutions follows the chain as printed.

To fix the notation:
B1: B1F8 heavy chain single-domain antibody (VHH)
VHH: QVQLVESGGGLVQPGGSLRLSCAASGSIFGVFYMGWFRQAPGKQREMVAISTDDRTSYVDSVKGRFTISRDNAKNTLALQMNSLKPEDTAVYFCNLNQLGTDYWGPGTQVTVSS
notes: Tested as crude supernatant of IPTG-induced E. coli TG1 carrying the pComb3XSS clone; also called BIF8
B2: B3F3 heavy chain single-domain antibody (VHH)
VHH: B1 VHH with G16E, A23T, E46D, V59A
notes: Tested as crude supernatant of IPTG-induced E. coli TG1 carrying the pComb3XSS clone
B3: B2C2 heavy chain single-domain antibody (VHH)
VHH: QLQLVESGGGLVQPGGSLRLSCAGSGIAFSRVTMAWSRQAPGKQRELVALITDGNRSAYVDSVKGRFTISRDNTKKTMSLQMNDLKPEDTAVYYCVATDWVPTRRDYWGQGTQVTVSS
notes: as for B2
B4: B1B7 heavy chain single-domain antibody (VHH)
VHH: QVQLVESGGGLVQPGGSLTLSCTASGSMFSFYTMGWYRQATGKQRELVAGISLGGETTYAPSVKDRFTISRDNAKNTVYLQMNSLKPEDTALYNCNAYWGEDYWGQGTQVTVSS
notes: as for B2
B5: B2A1 heavy chain single-domain antibody (VHH)
VHH: QVQLVESGGGLVQPGGSLRLSCAASGITFSHYDMAWFRQAPEKQRELVALITSGGKTAYADSVKGRFAISRDNAKNTVYLQMNSLKAGDTAVYYCNAHWVLTSQYWGQGTQVTVSS
notes: as for B2
B6: B2G8 heavy chain single-domain antibody (VHH)
VHH: QVQLVESGGGLVQPGGSLRLSCAASGISFSYYDMGWFRQAPGKQRELVAIVTSGGRTNYADSVKGRFTISRETAKSTMYLQMNSLKSEDTGVYYCNAHWIVTTDYWGQGTQVTVAS
notes: as for B2
B7: B3D6 heavy chain single-domain antibody (VHH)
VHH: EVQLVESGGGLVQAGGSLRLSCAASGRSFSSLAVGWFRQPPGKKREIVAAVNWSGTSTYYPDSVKGRFSISRDNTKNTVYLQMNSLKPEDTAVYYCAADPDLRWLKLWGYEYWGQGTQVTVSS
notes: as for B2
B8: B2F6 anti-TGFβ single domain heavy-chain antibody (variable region, linker peptide, human IgG1 heavy chain constant region) (Fc fusion)
heavy: EVQLVESGGGLVQPGGSLRLSCAASGFTFSYYVASWYRQAPGKERELVATTFPPDGSPHYADSVKGRFAISRDNAKNTVFLQMDSLKSEDTAVYYCNARRVEGHGIYWGQGTQVTVSS
notes: not shown: linker peptide (GGGGS)n, n=1, 2 or 3; human IgG1 heavy chain constant region, GenBank No. AK303185.1
B9: B3F1 anti-TGFβ single domain heavy-chain antibody (variable region, linker peptide, human IgG1 heavy chain constant region) (Fc fusion)
heavy: QLQLVESGGGLVQPGGSLTLSCAASGFTFSLYPMSWVRQAPGKGLEWVSVIGSDGGTKHYSDSVKGRFAISRDNAKNTLYLQMNSLKPEDTAVYYCAEGDSRYVRGRTRGQGTQVTVSS
notes: as for B8
B10: B3C5 anti-TGFβ single domain heavy-chain antibody (variable region, linker peptide, human IgG1 heavy chain constant region) (Fc fusion)
heavy: B9 heavy with L31H, H59I, S71A
notes: as for B8
B11: B2F6 heavy chain single-domain antibody (VHH)
VHH: B8 heavy
B12: B3C5 heavy chain single-domain antibody (VHH)
VHH: B9 heavy with L31H, H59I, S71A
B13: B3F1 heavy chain single-domain antibody (VHH)
VHH: B9 heavy

T1 sequence (P01137 279-390 limits assumed, one chain of several): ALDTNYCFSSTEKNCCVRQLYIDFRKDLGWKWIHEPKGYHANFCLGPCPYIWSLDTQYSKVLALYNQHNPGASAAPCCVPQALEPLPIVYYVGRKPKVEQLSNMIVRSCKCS

One assay concerns the target T1, TGFβ1 protein (GenScript Z03411) (human, UniProt P01137 279-390).
T1 construct: also called human TGF-β1; TGFβ1 antigen
In words: ELISA; plate coated with TGFβ1; E. coli supernatant; HRP anti-VHH. The procedure:
A microplate was coated with 2 μL/well of the TGFβ1 protein solution and BSA, respectively, at 4° C. overnight; the supernatant was discarded, 300 μL of a blocking solution (PBS containing 3% BSA) was added to each well, and the plate was blocked at 37° C. for 2 h; the supernatant collected by centrifugation was added to the well of the microplate at 200 μL per well, the plate was left to stand and incubated at room temperature for 2 h, and the supernatant was discarded; the plate was washed for 3 times with 200 μL/well PBST (PBS containing 0.1% Tween 20); a diluted HRP-labeled anti-VHH secondary antibody (Genscript, A01861) was added, the secondary antibody was used after a 1:10000 dilution, the diluent was PBS containing 1% BSA, the volume was 100 μL/well, and the plate was incubated at room temperature for 1 h; the plate was washed for 5 times with 200 μL/well PBST; a TMB chromogenic solution (BD, 55214) was added at 100 μL/well for color development at 37° C. for 8 min. 2 M HCl stop solution was added at 100 μL/well. After the addition of the stop solution, the 450 nm values were read using a microplate reader within 30 min.
A general note: In an ELISA, binding on a coated surface is turned into a signal by an enzyme label.
With B1, the “OD value of binding to TGFβ1” value was 1.03 OD 450 nm.

As to B2, the “OD value of binding to TGFβ1” value came out at 2.29 OD 450 nm.

B3: the “OD value of binding to TGFβ1” value worked out at 2.05 OD 450 nm.

Consider B4, for which the “OD value of binding to TGFβ1” value was found to be 1.95 OD 450 nm.

As to B5, the “OD value of binding to TGFβ1” value was 1.29 OD 450 nm.

Turning to B6, the “OD value of binding to TGFβ1” value amounted to 1.85 OD 450 nm.

Take B7: the “OD value of binding to TGFβ1” value turned out to be 1.65 OD 450 nm.

Another assay addresses T2, TGFβ3 protein (GenScript Z03430) (human, UniProt P10600 301-412).
T2 construct: also called human TGF-β3
T2 sequence (looked up): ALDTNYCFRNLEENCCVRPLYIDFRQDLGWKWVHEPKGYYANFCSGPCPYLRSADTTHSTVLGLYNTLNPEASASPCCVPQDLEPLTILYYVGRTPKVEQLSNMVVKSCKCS
In words: ELISA; plate coated with human TGF-β3; antibody titrated; HRP anti-human Fc. The method, then: (§1) A microplate was coated with 2 μL/well of the human TGF-β1/2/3 protein solution, respectively, at 4° C. overnight; the supernatant was discarded, 300 μL of a blocking solution (PBS containing 3% BSA) was added to each well, and the plate was blocked at 37° C. for 2 h; the antibodies were gradiently diluted, and the diluent was PBS containing 1% BSA. For example, the initial concentration of the antibody dilution was 500 nM, and diluted 10-fold to obtain 8 concentration gradients. The diluted antibody was added to the well of the microplate at 200 μL per well, the plate was left to stand and incubated at room temperature for 2 h, and the supernatant was discarded; the plate was washed for 3 times with 200 μL/well PBST (PBS containing 0.1% Tween 20); a diluted HRP-labeled anti-human Fc secondary antibody (SIGMA, A8667) was added, the secondary antibody was used after a 1:20000 dilution, the diluent was PBS containing 1% BSA, the volume was 100 μL/well, and the plate was incubated at room temperature for 1 h; the plate was washed for 5 times with 200 μL/well PBST; a TMB chromogenic solution (BD, 55214) was added at 100 μL/well for color development at 37° C. for 8 min. 2 M HCl stop solution was added at 100 μL/well. After the addition of the stop solution, the 450 nm values were read using a microplate reader within 30 min. Data were analyzed using GraphPad Prism 6.0 software and avidity fitting was performed to give EC50 values.
With B8, the half-maximal effective concentration (EC50) (commonly the concentration at which the effect is half-maximal) worked out at 1.03 nM.

On to B9, for which the concentration for a half-maximal effect (EC50) worked out at 1.33 nM.

In turn, B10 registered a concentration giving a half-maximal response (EC50) of 1.35 nM.

The next assay deals with BSA (UniProt P02769). In words: ELISA; plate coated with BSA (control); E. coli supernatant; HRP anti-VHH.
BSA, sequence (P02769 25-607 limits assumed): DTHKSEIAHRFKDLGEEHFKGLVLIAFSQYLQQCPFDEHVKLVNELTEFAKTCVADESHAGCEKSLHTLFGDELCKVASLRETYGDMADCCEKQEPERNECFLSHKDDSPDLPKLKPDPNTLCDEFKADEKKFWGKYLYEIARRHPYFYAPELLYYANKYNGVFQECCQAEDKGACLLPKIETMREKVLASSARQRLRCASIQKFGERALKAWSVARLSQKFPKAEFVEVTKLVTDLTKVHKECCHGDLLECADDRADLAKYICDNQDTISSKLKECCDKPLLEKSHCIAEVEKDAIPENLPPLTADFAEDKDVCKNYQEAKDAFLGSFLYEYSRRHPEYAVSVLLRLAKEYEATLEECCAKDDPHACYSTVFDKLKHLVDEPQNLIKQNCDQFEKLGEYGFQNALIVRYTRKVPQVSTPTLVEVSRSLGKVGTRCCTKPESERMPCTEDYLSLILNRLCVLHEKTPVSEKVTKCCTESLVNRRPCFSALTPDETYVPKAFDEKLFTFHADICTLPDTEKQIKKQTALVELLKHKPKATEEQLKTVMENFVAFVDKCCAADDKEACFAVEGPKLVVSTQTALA
In the case of B11, the OD value of binding to BSA came to 0.053 OD 450 nm.

Molecule B1 had an OD value of binding to BSA of 0.07 OD 450 nm.

On to B2, for which the OD value of binding to BSA turned out to be 0.071 OD 450 nm.

B3 yielded an OD value of binding to BSA of 0.058 OD 450 nm.

For B12, the OD value of binding to BSA is 0.051 OD 450 nm.

In the case of B13, the OD value of binding to BSA worked out at 0.051 OD 450 nm.

As for B4, the OD value of binding to BSA amounted to 0.067 OD 450 nm.

For B5, the OD value of binding to BSA came out at 0.057 OD 450 nm.

Regarding B6, the OD value of binding to BSA is 0.064 OD 450 nm.

For the molecule B7, the OD value of binding to BSA came out at 0.067 OD 450 nm.

The target in the next assay is T3, TGFβ2 protein (GenScript Z03429) (human, UniProt P61812 303-414).
T3 construct: also called human TGF-β2
T3 sequence (looked up): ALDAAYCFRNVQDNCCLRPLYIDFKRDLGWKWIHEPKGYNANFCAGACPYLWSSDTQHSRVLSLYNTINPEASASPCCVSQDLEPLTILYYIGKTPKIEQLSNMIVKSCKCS
In words: ELISA; plate coated with human TGF-β2; antibody titrated; HRP anti-human Fc. The method, then: as §1
For the molecule B8, a half-maximal effect (EC50) was put at 0.774 nM.

In turn, B9 displayed a concentration giving a half-maximal response (EC50) of 148 nM.

Molecule B10 yielded a 50% effective concentration (EC50) of 3.52 nM.
